Data published in IntAct's records for PubMed 35512704.

B1: Mothers against decapentaplegic homolog 4 (Homo sapiens), Q13485 (parent)
chain: MDNMSITNTPTSNDACLSIVHSLMCHRQGGESETFAKRAIESLVKKLKEKKDELDSLITAITTNGAHPSKCVTIQRTLDGRLQVAGRKGFPHVIYARLWRWPDLHKNELKHVKYCQYAFDLKCDSVCVNPYHYERVVSPGIDLSGLTLQSNAPSSMMVKDEYVHDFEGQPSLSTEGHSIQTIQHPPSNRASTETYSTPALLAPSESNATSTANFPNIPVASTSQPASILGGSHSEGLLQIASGPQPGQQQNGFTGQPATYHHNSTTTWTGSRTAPYTPNLPHHQNGHLQHHPPMPPHPGHYWPVHNELAFQPPISNHPAPEYWCSIAYFEMDVQVGETFKVPSSCPIVTVDGYVDPSGGDRFCLGQLSNVHRTEAIERARLHIGKGVQLECKGEGDVWVRCLSDHAVFVQSYYLDREAGRAPGDAVHKIYPSAYIKVFDLRQCHRQMQQQAATAQAAAAAQAAAVAGNIPGPGSVGGIAPAISLSAAAGIGVDDLRRLCILRMSFVKGWGPDYPRQSIKETPCWIEIHLHRALQLLDEVLHTMPIADPQPLD
partner: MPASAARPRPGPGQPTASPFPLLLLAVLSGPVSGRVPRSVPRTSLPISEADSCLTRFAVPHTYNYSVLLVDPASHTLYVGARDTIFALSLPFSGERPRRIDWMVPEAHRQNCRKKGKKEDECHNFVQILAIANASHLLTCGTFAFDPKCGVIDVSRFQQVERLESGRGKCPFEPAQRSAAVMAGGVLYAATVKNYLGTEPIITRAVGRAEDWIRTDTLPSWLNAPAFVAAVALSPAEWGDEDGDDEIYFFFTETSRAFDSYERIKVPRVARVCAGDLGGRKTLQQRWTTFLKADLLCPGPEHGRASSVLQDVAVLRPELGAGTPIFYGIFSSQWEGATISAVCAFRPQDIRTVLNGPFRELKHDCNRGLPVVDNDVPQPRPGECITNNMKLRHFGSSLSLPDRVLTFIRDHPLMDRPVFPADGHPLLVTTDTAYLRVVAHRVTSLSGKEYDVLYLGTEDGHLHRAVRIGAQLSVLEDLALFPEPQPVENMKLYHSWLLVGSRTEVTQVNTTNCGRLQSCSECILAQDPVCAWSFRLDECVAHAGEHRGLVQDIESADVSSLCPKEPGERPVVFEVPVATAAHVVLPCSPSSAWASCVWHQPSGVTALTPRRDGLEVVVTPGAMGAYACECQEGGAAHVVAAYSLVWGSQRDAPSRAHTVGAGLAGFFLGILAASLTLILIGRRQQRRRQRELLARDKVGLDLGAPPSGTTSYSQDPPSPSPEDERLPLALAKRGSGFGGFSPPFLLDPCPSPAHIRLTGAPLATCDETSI
B2: Speckle-type POZ protein (Homo sapiens), O43791 (parent)
chain: MSRVPSPPPPAEMSSGPVAESWCYTQIKVVKFSYMWTINNFSFCREEMGEVIKSSTFSSGANDKLKWCLRVNPKGLDEESKDYLSLYLLLVSCPKSEVRAKFKFSILNAKGEETKAMESQRAYRFVQGKDWGFKKFIRRDFLLDEANGLLPDDKLTLFCEVSVVQDSVNISGQNTMNMVKVPECRLADELGGLWENSRFTDCCLCVAGQEFQAHKAILAARSPVFSAMFEHEMEESKKNRVEINDVEPEVFKEMMCFIYTGKAPNLDKMADDLLAAADKYALERLKVMCEDALCSNLSVENAAEILILADLHSADQLKTQAVDFINYHASDVLETSGWKSMVVSHPHLVAEAYRSLASAQCPFLGPPRKRLKQS
partner: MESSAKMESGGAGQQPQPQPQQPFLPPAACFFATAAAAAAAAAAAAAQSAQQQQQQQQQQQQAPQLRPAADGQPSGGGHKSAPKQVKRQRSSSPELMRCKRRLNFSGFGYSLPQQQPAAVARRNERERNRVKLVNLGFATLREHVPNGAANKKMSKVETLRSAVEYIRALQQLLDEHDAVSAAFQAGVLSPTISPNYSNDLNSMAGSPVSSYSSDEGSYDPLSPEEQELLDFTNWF
B3: Mothers against decapentaplegic homolog 4 (Homo sapiens), Q13485 (parent)
chain: B1 chain
partner: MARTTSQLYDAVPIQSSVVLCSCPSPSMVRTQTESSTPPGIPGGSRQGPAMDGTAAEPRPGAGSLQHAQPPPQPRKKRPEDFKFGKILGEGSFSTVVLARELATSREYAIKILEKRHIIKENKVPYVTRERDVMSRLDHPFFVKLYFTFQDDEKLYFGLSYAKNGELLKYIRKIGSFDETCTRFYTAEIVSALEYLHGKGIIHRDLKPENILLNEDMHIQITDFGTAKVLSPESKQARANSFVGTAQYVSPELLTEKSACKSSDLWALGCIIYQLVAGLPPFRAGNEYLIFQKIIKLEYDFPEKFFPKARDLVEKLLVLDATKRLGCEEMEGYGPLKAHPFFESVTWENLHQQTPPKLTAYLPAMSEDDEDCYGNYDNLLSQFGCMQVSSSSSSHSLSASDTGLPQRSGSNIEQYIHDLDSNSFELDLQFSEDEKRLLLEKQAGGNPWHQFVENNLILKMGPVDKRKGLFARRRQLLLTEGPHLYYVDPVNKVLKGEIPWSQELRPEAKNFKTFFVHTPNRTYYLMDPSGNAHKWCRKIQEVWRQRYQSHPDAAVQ
B4: Mothers against decapentaplegic homolog 4 (Homo sapiens), Q13485 (parent)
chain: B1 chain
partner: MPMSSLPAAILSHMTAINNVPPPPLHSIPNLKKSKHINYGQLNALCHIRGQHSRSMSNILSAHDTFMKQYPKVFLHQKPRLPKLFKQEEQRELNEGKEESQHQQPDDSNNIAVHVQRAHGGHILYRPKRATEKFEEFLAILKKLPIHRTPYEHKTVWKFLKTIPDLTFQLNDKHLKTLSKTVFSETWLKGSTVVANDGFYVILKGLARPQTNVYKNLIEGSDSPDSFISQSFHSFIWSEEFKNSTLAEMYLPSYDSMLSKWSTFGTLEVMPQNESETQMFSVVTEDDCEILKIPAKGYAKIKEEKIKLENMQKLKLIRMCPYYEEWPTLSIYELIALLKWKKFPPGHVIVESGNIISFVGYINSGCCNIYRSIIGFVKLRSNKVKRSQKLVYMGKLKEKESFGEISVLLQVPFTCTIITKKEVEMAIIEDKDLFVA
B5: Mothers against decapentaplegic homolog 4 (Homo sapiens), Q13485 (parent)
chain: B1 chain
partner: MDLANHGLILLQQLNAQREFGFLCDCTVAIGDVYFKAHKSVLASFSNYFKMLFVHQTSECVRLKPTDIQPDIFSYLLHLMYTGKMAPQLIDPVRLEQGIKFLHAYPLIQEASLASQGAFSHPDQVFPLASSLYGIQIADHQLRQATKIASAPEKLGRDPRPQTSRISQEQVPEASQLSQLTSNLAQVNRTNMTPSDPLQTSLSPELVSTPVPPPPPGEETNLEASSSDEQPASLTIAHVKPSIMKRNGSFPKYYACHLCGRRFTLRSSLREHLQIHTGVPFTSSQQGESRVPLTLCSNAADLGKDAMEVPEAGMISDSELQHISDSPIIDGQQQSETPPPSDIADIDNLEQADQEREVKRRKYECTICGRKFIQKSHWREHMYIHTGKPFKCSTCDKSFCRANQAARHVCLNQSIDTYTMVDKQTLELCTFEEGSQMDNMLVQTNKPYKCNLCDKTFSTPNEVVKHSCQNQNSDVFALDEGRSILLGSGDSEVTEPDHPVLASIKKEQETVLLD

Variants of: B1
Details: with sem4f_human SEMA4F

effect of a mutation on the interaction	Variant
with no effect	G386D

Variants of: B1
Details: with sem4f_human SEMA4F
Remark: another data set of the same source

effect of a mutation on the interaction	Variant
causing an interaction	G386D

Variants of: B2
Details: with ascl1_human ASCL1, P50553

effect of a mutation on the interaction	Variant
with no effect	MSRVPSPPPPAEMSSGPVAESWCYTQIKVVKFSYMWTINNFSFCREEMGEVIKSSTFSSGANDKLKWCLRVNPKGLDEESKDYLSLYLLLVSCPKSEVRAKFKFSILNAKGEETKAMESQRAYRFVQGKDWGVKKFIRRDFLLDEANGLLPDDKLTLFCEVSVVQDSVNISGQNTMNMVKVPECRLADELGGLWENSRFTDCCLCVAGQEFQAHKAILAARSPVFSAMFEHEMEESKKNRVEINDVEPEVFKEMMCFIYTGKAPNLDKMADDLLAAADKYALERLKVMCEDALCSNLSVENAAEILILADLHSADQLKTQAVDFINYHASDVLETSGWKSMVVSHPHLVAEAYRSLASAQCPFLGPPRKRLKQS [F133V]

Variants of: B2
Details: with ascl1_human ASCL1, P50553
Remark: another data set of the same source

effect of a mutation on the interaction	Variant
with no effect	MSRVPSPPPPAEMSSGPVAESWCYTQIKVVKFSYMWTINNFSFCREEMGEVIKSSTFSSGANDKLKWCLRVNPKGLDEESKDYLSLYLLLVSCPKSEVRAKFKFSILNAKGEETKAMESQRAYRFVQGKDWGLKKFIRRDFLLDEANGLLPDDKLTLFCEVSVVQDSVNISGQNTMNMVKVPECRLADELGGLWENSRFTDCCLCVAGQEFQAHKAILAARSPVFSAMFEHEMEESKKNRVEINDVEPEVFKEMMCFIYTGKAPNLDKMADDLLAAADKYALERLKVMCEDALCSNLSVENAAEILILADLHSADQLKTQAVDFINYHASDVLETSGWKSMVVSHPHLVAEAYRSLASAQCPFLGPPRKRLKQS [F133L]

Variants of: B2
Details: with ascl1_human ASCL1, P50553
Remark: another data set of the same source

effect of a mutation on the interaction	Variant
with no effect	MSRVPSPPPPAEMSSGPVAESWCYTQIKVVKFSYMWTINNFSFCREEMGEVIKSSTFSSGANDKLKWCLRVNPKGLDEESKDYLSLCLLLVSCPKSEVRAKFKFSILNAKGEETKAMESQRAYRFVQGKDWGFKKFIRRDFLLDEANGLLPDDKLTLFCEVSVVQDSVNISGQNTMNMVKVPECRLADELGGLWENSRFTDCCLCVAGQEFQAHKAILAARSPVFSAMFEHEMEESKKNRVEINDVEPEVFKEMMCFIYTGKAPNLDKMADDLLAAADKYALERLKVMCEDALCSNLSVENAAEILILADLHSADQLKTQAVDFINYHASDVLETSGWKSMVVSHPHLVAEAYRSLASAQCPFLGPPRKRLKQS [Y87C]

Variants of: B2
Details: with ascl1_human ASCL1, P50553
Remark: another data set of the same source

effect of a mutation on the interaction	Variant
with no effect	MSRVPSPPPPAEMSSGPVAESWCYTQIKVVKFSYMWTINNFSFCREEMGEVIKSSTFSSGANDKLKWCLRVNPKGLDEESKDYLSLYLLLVSCPKSEVRAKCKFSILNAKGEETKAMESQRAYRFVQGKDWGFKKFIRRDFLLDEANGLLPDDKLTLFCEVSVVQDSVNISGQNTMNMVKVPECRLADELGGLWENSRFTDCCLCVAGQEFQAHKAILAARSPVFSAMFEHEMEESKKNRVEINDVEPEVFKEMMCFIYTGKAPNLDKMADDLLAAADKYALERLKVMCEDALCSNLSVENAAEILILADLHSADQLKTQAVDFINYHASDVLETSGWKSMVVSHPHLVAEAYRSLASAQCPFLGPPRKRLKQS [F102C]

Variants of: B3
Details: with pdpk1_human PDPK1, O15530

effect of a mutation on the interaction	Variant
with no effect	R361H

Variants of: B4
Details: with cnbd1_human CNBD1, Q8NA66

effect of a mutation on the interaction	Variant
with no effect	R361H

Variants of: B5
Details: with zbtb2_human ZBTB2, Q8N680

effect of a mutation on the interaction	Variant
with no effect	R361H
